# In paper PMC10536834, “Elucidating the Role of a Calcium-Binding Loop in an x-Prolyl Aminodipeptidase from Lb. helveticus” (ACS Omega, 2023):
# Where a chain is given by its changes, count along the chain named. Names may count otherwise.
# B1: PepX (x-prolyl aminodipeptidase) from Lactobacillus helveticus (Lactobacillus helveticus) (protein)
# chain: MKYNQYAYVETDFQQQVKELIDINFLPKNYQVWDFSSLLAKLVKNAIAEAKTDAAKNAKLAEFAVSDHQTLADFLKEKPTEIGTKQFYNVALQLLGYHVHYDYDFADPTGFMQRNALPFLQDISDNQKLISAFYRLLNTRAKNGQILLDVMAGKGYFTQFWGQNKFKFFNGKSIPVFDTNKVIREVVYVETDLDTDHDGKSDLIQVTVFRPEETNKGLKVPALYTASPYFGGIIANEKRNHNVDENLSDSTEWNDPQYVHSPIVKAEKPDGSSRPATEEAVHKSSYPLNEYMLARGFASVFAGAIGTRGSDGVRITGAPEETESAAAVIEWLHGDRVAYTDRTRTVQTTADWCNGNIGMTGRSYLGTLQIAIATTGVKGLKTVVSEAAISSWYDYYREHGLVIAPEACQGEDLDLLAETCQSNLWDAGSYLKIKPEYDKMQKQLREKEDRNTGQYSDFWEARNYRHHADGIKCSWISVHGLNDWNVKPKNVYKIWQLVKKMPMKHHLFLHQGPHYNMNNLVSIDFTDLMNLWFVHELLGIENNAYNQWPTVMIQDNLQADKWHEEPDWSNDLGQEKIYYPTDEGELFQDGNGKAQKSFTDVGGIEFKKAGISESDWQYKFICGDEKWAKPSLRFETDEFTHPTTIVGRPEVKVRVSASLPKGEISVALVELGERQRLTATPKFLMHGGQELGYRFGTDTLQEFVPDKKTKAKLITKAHMNLQNFKDMKKPEAIDADKFYDLDFLLQPTYYTIPSGSKLALIIYSTDQGMTKRPLEDETYTIDLANTEIKFYEK
# notes: recombinant, N-terminal six-histidine tag, pET14b, E. coli BL21(DE3)pLysS; PepX known to form dimers
# B2: PepX (x-prolyl aminodipeptidase) from Lactobacillus helveticus (Lactobacillus helveticus; D196A) (protein)
# chain: B1 chain with D196A
# notes: as for B1
# Substrate: NCC(=O)N1CCC[C@H]1C(=O)Nc1ccc([N+](=O)[O-])cc1
# Experiment: purified protein
# Type: biochemical, Lactobacillus helveticus
# Conditions: 50 mM MES pH 6.5, 40 °C, 200 nM enzyme, 75-500 μM substrate
row,Protein,Km [µM]
1,B1,302
2,B2,315
